This is an account of results in PMC4881018, “Sec15 links bud site selection to polarised cell growth and exocytosis in Candida albicans” (Scientific Reports, 2016).

Assay in all cases: pull-down; GST fusion protein immobilised on glutathione-Sepharose beads (20 μl), incubated with 20 μg of purified His-tagged protein in 200 μl binding buffer (1× PBS, 1 mg/ml ovalbumin, 10 mM β-mercaptoethanol, 0.1% IGPAL-30), 1 hour at room temperature; four washes; anti-His blot
Common to all, as to conditions: both partners purified

One test deals with T1, GST-Sec15^550–892 (C. albicans, UniProt A0A1D8PM29 550-892).
T1 construct: The methods say only that similar strategies as for Sec15 and Rsr1 were used; source: E. coli, purified
T1 sequence (looked up): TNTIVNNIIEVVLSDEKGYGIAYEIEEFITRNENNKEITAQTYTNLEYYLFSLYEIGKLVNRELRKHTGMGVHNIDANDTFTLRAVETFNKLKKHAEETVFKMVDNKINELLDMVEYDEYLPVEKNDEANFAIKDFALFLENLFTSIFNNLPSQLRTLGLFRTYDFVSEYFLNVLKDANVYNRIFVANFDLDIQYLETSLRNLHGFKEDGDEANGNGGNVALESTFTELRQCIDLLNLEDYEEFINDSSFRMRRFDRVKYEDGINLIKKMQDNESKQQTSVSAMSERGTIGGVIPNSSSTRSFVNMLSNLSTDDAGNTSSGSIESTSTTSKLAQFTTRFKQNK

Another test concerns the target T2, His-Sec15^1–549 (C. albicans, UniProt A0A1D8PM29 1-549).
T2 construct: Sec15, exocyst component of Candida albicans, amino acids 1 to 549; Subcloned into pET21-a (Novagen); also called His6-Sec15^1–549; source: E. coli, purified
T2 sequence (looked up): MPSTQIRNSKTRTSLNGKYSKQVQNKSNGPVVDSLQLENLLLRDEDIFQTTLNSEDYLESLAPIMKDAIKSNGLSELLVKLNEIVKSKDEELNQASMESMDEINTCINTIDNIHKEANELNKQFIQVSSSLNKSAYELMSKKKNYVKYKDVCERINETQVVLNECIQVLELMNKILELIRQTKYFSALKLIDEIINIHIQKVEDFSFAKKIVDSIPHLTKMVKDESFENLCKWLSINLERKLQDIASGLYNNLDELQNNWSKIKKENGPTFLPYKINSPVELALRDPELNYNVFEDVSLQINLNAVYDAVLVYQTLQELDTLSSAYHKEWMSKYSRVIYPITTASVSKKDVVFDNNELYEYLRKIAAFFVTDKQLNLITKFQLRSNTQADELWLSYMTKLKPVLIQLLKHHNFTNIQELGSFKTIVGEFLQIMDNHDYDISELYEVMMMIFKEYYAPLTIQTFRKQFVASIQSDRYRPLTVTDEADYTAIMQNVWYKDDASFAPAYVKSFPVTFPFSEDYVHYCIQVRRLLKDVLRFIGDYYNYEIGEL

In the next test the target is T3, His-Sec15^1–300 (C. albicans, UniProt A0A1D8PM29 1-300).
T3 construct: Sec15, exocyst component of Candida albicans, amino acids 1 to 300; Subcloned into pET21-a (Novagen); also called His6-Sec15^1–300; source: E. coli, purified
T3 sequence (looked up): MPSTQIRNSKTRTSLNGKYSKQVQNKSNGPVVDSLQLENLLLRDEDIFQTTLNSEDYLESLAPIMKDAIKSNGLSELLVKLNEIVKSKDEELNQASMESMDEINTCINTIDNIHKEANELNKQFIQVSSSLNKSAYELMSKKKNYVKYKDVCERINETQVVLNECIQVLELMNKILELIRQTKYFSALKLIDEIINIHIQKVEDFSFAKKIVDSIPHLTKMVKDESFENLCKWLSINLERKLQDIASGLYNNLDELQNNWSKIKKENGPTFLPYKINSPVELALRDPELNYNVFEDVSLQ

B1: His-Bem1^1–300 (domain or fragment, C. albicans, UniProt A0A1D8PLB6 1-300, looked up)
chain: MIKTFRKSKRSSSNSSSPKKTISRVSSTSSNQTSHDGILQSPKKVIRALYDYEPQGPGELKFFKGDFFHVLDDVDDELHKEAEANGWIEATNPMTQLKGMVPISYFEIFDRSRPTVTASSNSFTNSIDIQHQHQHQQGIHNGTGNRNLNQTLYAVTLYEFKAERDDELDIMPNENLIICAHHDYEWFIAKPINRLGGPGLVPVSYVKIIDLLNPNSHYTSIDTSRRSQVIQVINGFNIPTVEQWKNQTAKYQASTIPLGSISGSGTPPTSANSQYFDNHTMTSNRSSSGSSISIVEASVD
notes: Bem1, polarity determinant of Candida albicans, N-terminal 300 amino acids; also called His6-Bem1^1–300; N-terminal 300 amino acids of Bem1; source: similar strategies as for the E. coli proteins
Regarding B1, the binding result with GST-Sec15^550–892 is on record as “binds”.

B2: GST-Rsr1^K16N (GDP-locked form of Rsr1) (natural protein)
chain: MRDYKVVVLGAGGVGNSSITVQFVQGVYVESYDPTIEDSYRKQIEVDGRACDLEILDTAGVAQFTAMRELYIKSGKGFLLVYSVTDENSLKELLALREQVLRIKDSDNVPMVLVGNKCDLEDDRVLSIEDGVKVSQDWGLVPFYETSAMYKTNVDEAFIDVVRQIMRKEAAISAEKKQQKELQKQQQQQQQEQDAEGQQQQQKSGKSKSSATQKDATADGQTDVNARLKQSINDHPKSSSGSKFCTII
notes: Rsr1, Ras-family GTPase of Candida albicans; GDP-locked mutant K16N; Made with the pGEX vector system (Amersham Biosciences), which normally places GST at the N-terminus; also called Rsr1-GDP; recombinant Rsr1^K16N
On to B2, for which the binding result with His-Sec15^1–549 and with His-Sec15^1–300 was “binds” in each case.
